From PMC5548806 come the findings set out here.

The target in experiment [1] is CU44 HA ectodomain double mutant F88E/V91W of HA2 fused to the foldon (before the foldon cleavage) (influenza A virus H1N1 A/Thailand/CU44/2006 | not stated). As to the kind of experiment: SEC; foldon present (pre-thrombin); Superdex 200 in 50 mM Tris (pH 8.0), 100 mM NaCl, 0.5 ml/min; Fig. 1C. A general note: In gel filtration, larger molecules generally elute earlier.

For experiment [2], the target named is CU44 wild-type HA ectodomain (A/Thailand/CU44/2006), foldon removed by thrombin (influenza A virus H1N1 A/Thailand/CU44/2006). As to the kind of experiment: SEC; […] (pH 8.0), 100 mM NaCl, 0.5 ml/min; […].
Experiment [3] concerns the target CU44 HA ectodomain mutant R75L of HA2, foldon removed by thrombin (influenza A virus H1N1 A/Thailand/CU44/2006). As to the kind of experiment: SEC; […] (pH 8.0), 100 mM NaCl, 0.5 ml/min; […].
Experiment [4] concerns the target CU44 HA ectodomain mutant S199F of HA1, foldon removed by thrombin (influenza A virus H1N1 A/Thailand/CU44/2006). As to the kind of experiment: SEC; […] (pH 8.0), 100 mM NaCl, 0.5 ml/min; […].
The target of experiment [5] is CU44 HA ectodomain mutant G47E of HA2, foldon removed by thrombin (influenza A virus H1N1 A/Thailand/CU44/2006). As to the kind of experiment: SEC; […] (pH 8.0), 100 mM NaCl, 0.5 ml/min; […].
Experiment [6] concerns the target CU44 HA ectodomain mutant R106E of HA2, foldon removed by thrombin (influenza A virus H1N1 A/Thailand/CU44/2006). As to the kind of experiment: SEC; […] (pH 8.0), 100 mM NaCl, 0.5 ml/min; […].
The target in experiment [7] is CU44 HA ectodomain mutant V91W of HA2 fused to the foldon (pre-thrombin) (influenza A virus H1N1 A/Thailand/CU44/2006 | not stated). As to the kind of experiment: SEC; foldon present (pre-thrombin); Superdex 200 in 50 mM Tris (pH 8.0), 100 mM NaCl, 0.5 ml/min; Fig. 1C.
The target in experiment [8] is CU44 HA ectodomain mutant F88E of HA2 fused to the foldon (pre-thrombin) (influenza A virus H1N1 A/Thailand/CU44/2006 | not stated). Described as above.

What is called stoichiometry N is the number of molecules, sites or subunits per partner or assembly.

On to “CU44 HA ectodomain double mutant F88E/V91W of HA2 fused to the foldon (before the foldon cleavage)”, for which, in experiment [1], the stoichiometry N was determined as 3. Take “CU44 wild-type HA ectodomain (A/Thailand/CU44/2006), foldon removed by thrombin (domain or fragment)”: the stoichiometry N in experiment [2] turned out to be 3. On to “CU44 HA ectodomain mutant R75L of HA2, foldon removed by thrombin (domain or fragment)”, for which the stoichiometry N in experiment [3] came to 3. Substance “CU44 HA ectodomain mutant S199F of HA1, foldon removed by thrombin (domain or fragment)” displayed a stoichiometry N in experiment [4] of 3. For “CU44 HA ectodomain mutant G47E of HA2, foldon removed by thrombin (domain or fragment)”, the stoichiometry N in experiment [5] was determined as 3. The substance “CU44 HA ectodomain mutant R106E of HA2, foldon removed by thrombin (domain or fragment)” registered a stoichiometry N in experiment [6] of 3. In turn, “CU44 HA ectodomain mutant V91W of HA2 fused to the foldon (pre-thrombin)” yielded a stoichiometry N in experiment [7] of 3. Consider “CU44 HA ectodomain mutant F88E of HA2 fused to the foldon (pre-thrombin)”, for which the stoichiometry N in experiment [8] was found to be 3.
